Data: patent US20240327514A1 (Janssen / Centocor, published 2024)

Molecular target: T1, human CD123 (human, UniProt P26951 19-378)
T1 construct: whole, on cells; Target presented on CD123+ AML cell lines; also called CD123 on CD123+ AML cells
Experiment: flow cytometry on tumor cell lines, detection with mouse anti-human IgG4
Method: All tumor cells were centrifuged, washed twice with Dulbecco's phosphate-buffered saline (DPBS) and 1×10^4 cells were added to the center of each well of a 96 well U bottom plate along with fragment crystallizable (Fc) block (human IgG1 fragment) which was added at 2 mg/mL for 10 minutes. Serially diluted bispecific antibodies were added to the appropriate wells. Plates were incubated in the dark at 37° C. with 5% CO₂ for 4 hours. The cells were then washed with DPBS and binding of the bispecific antibody was detected by staining with mouse anti-human IgG4 (Southern Biotech, clone HP6025, catalog #9200-09) and LIVE/DEAD (L/D; Invitrogen, catalog #L34976) for 30 minutes. Finally, cells were washed, resuspended in stain buffer, and analyzed on the FACSCanto II flow cytometer (BD Biosciences). Geometric mean fluorescence intensity (gMFI) was plotted in Prism version 7 (GraphPad). The X axis was log transformed and a 4 parameter non-linear curve fit was applied.

T1 sequence (P26951 19-378): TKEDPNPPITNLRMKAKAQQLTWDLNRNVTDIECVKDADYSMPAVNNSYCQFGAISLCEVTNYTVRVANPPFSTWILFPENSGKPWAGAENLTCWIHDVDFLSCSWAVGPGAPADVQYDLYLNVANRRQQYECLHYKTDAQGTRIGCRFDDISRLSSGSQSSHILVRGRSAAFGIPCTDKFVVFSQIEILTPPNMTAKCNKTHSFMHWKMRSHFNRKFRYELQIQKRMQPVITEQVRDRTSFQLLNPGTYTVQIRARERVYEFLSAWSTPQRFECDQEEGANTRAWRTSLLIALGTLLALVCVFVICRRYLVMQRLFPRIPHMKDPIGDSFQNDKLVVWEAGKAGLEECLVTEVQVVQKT

B1: CD123×CD3 bispecific antibody (bispecific antibody, human IgG4 S228P, kappa, lambda, F234A L235A)
heavy 1: not shown
light 1: EIVLTQSPGTLSLSPGERATLSCRASQSVSSSYLAWYQQKPGQAPRLLIYGASSRATGIPDRFSGSGSGTDFTLTISRLEPEDFAVYYCQQDYGFPWTFGQGTKVEIKRTVAAPSVFIFPPSDEQLKSGTASVVCLLNNFYPREAKVQWKVDNALQSGNSQESVTEQDSKDSTYSLSSTLTLSKADYEKHKVYACEVTHQGLSSPVTKSFNRGEC
heavy 2: EVQLVESGGGLVQPGGSLKLSCAASGFTFNTYAMNWVRQASGKGLEWVGRIRSKYNAYATYYAASVKGRFTISRDDSKNTAYLQMNSLKTEDTAVYYCTRHGNFGNSYVSWFAYWGQGTLVTVSSASTKGPSVFPLAPCSRSTSESTAALGCLVKDYFPEPVTVSWNSGALTSGVHTFPAVLQSSGLYSLSSVVTVPSSSLGTKTYTCNVDHKPSNTKVDKRVESKYGPPCPPCPAPEAAGGPSVFLFPPKPKDTLMISRTPEVTCVVVDVSQEDPEVQFNWYVDGVEVHNAKTKPREEQFNSTYRVVSVLTVLHQDWLNGKEYKCKVSNKGLPSSIEKTISKAKGQPREPQVYTLPPSQEEMTKNQVSLTCLVKGFYPSDIAVEWESNGQPENNYKTTPPVLDSDGSFLLYSKLTVDKSRWQEGNVFSCSVMHEALHNHYTQKSLSLSLGK
light 2: QAVVTQEPSLTVSPGGTVTLTCRSSTGAVTTSNYANWVQQKPGQAPRGLIGGTNKRAPGTPARFSGSLLGGKAALTLSGAQPEDEAEYYCALWYSNLWVFGGGTKLTVLGQPKAAPSVTLFPPSSEELQANKATLVCLISDFYPGAVTVAWKADSSPVKAGVETTTPSKQSNNKYAASSYLSLTPEQWKSHRSYSCQVTHEGSTVEKTVAPTECS
notes: also called CD123xCD3 DuoBody antibody
B1: binds.
